The text below walks through data of PMC8808179 (The Journal of Biological Chemistry, 2021).

In test [1] the target is T1, cynomolgus monkey (nonhuman primate) IL-13 (Macaca fascicularis).
T1 chain: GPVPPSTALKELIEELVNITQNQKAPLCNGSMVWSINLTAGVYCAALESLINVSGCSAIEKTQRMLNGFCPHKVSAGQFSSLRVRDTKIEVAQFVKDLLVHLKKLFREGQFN
As to the kind of experiment: KinExA.

Test [2] addresses human interleukin (IL)-13 (Homo sapiens, UniProt P35225). As to the kind of experiment: KinExA.
In test [3] the target is T1, cynomolgus monkey (nonhuman primate) …. Nature of the test: flow cytometry on cells.

human interleukin (IL)-13, sequence (P35225 25-146): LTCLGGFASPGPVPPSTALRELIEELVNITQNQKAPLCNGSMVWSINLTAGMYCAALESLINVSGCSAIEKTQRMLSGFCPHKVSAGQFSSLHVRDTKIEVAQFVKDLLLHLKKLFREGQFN

B1: antibody 731 (antibody, V domains shown)
VH: EVQLLESGGGLVQPGGSLRLSCAASGFTFSSYAMSWVRQAPGKGLEWVSAFSGSGGSTYYADSVKGRFTISRDNSKNTLYLQMNSLRAEDTAVYYCVQDGLGPYFYNYGMDVWGQGTTVTVSS
VL: SYELTQPPSVSVSPGQTASITCSGDKLGDKYTCWFQQKPGQSPVLVIYHDSKRPSGIPERFSGSNSGDTATLTISGTQAMDEADYYCQAWDSSTYVFGTGTKVTVL
Consider B1, for which the results for the Kd in test [1] and in test [2] were 3550 pM and 1.9 pM, respectively.

B2: MMAb2 (LC2/HC2) (antibody, V domains shown)
VH: EVQLLESGGGLVQPGGSLRLSCAASGFTFSSYAGSWVRQAPGKGLEWVSAFSGSGGSTYYADSVKGRFTISRDNSKNTLYLQMNSLRAEDTAVYYCVQDGLGPYFYNYGMDVWGQGTTVTVSS
VL: SYELTQPPSVSVSPGQTASITCSGDKLGDKYAFWFQQKPGQSPVLVIYHDSKRPSGIPERFSGSNSGDTATLTISGTQAMDEADYYCQAWDSSTYVFGTGTKVTVL
For the molecule B2, the values for the Kd in test [1] and in test [2] were 12.4 pM and 0.142 pM, respectively.

B3: HC1 (heavy-chain variant of Ab731 with the parental light chain), membrane-tethered on the cell surface (antibody, V domains shown)
VH: EVQLLESGGGLVQPGGSLRLSCAASGFTFSSYAMSWVRQAPGKGLEWVSAFSGWDVSTYYADSVKGRFTISRDNSKNTLYLQMNSLRAEDTAVYYCVQDGLGPYFYNYGMDVWGQGTTVTVSS
VL: SYELTQPPSVSVSPGQTASITCSGDKLGDKYTCWFQQKPGQSPVLVIYHDSKRPSGIPERFSGSNSGDTATLTISGTQAMDEADYYCQAWDSSTYVFGTGTKVTVL
On to B3, for which the binding result in test [3] was “binds”.

B4: MMAb1 (LC1/HC2) (antibody, V domains shown)
VH: EVQLLESGGGLVQPGGSLRLSCAASGFTFSSYAGSWVRQAPGKGLEWVSAFSGSGGSTYYADSVKGRFTISRDNSKNTLYLQMNSLRAEDTAVYYCVQDGLGPYFYNYGMDVWGQGTTVTVSS
VL: SYELTQPPSVSVSPGQTASITCSGDKLGDKYSFWFQQKPGQSPVLVIYHDSKRPSGIPERFSGSNSGDTATLTISGTQAMDEADYYCQAWDSSTYVFGTGTKVTVL
B4: the figures for the Kd in test [1] and in test [2] were 18.7 pM and 0.295 pM, respectively.

B5: HC2 (heavy-chain variant of Ab731 with the parental light chain), membrane-tethered on the cell surface (antibody, V domains shown)
VH: EVQLLESGGGLVQPGGSLRLSCAASGFTFSSYAGSWVRQAPGKGLEWVSAFSGSGGSTYYADSVKGRFTISRDNSKNTLYLQMNSLRAEDTAVYYCVQDGLGPYFYNYGMDVWGQGTTVTVSS
VL: SYELTQPPSVSVSPGQTASITCSGDKLGDKYTCWFQQKPGQSPVLVIYHDSKRPSGIPERFSGSNSGDTATLTISGTQAMDEADYYCQAWDSSTYVFGTGTKVTVL
In the case of B5, the binding result in test [3] was “binds”.

B6: MMAb3 (LC1/HC1) (antibody, V domains shown)
VH: EVQLLESGGGLVQPGGSLRLSCAASGFTFSSYAMSWVRQAPGKGLEWVSAFSGWDVSTYYADSVKGRFTISRDNSKNTLYLQMNSLRAEDTAVYYCVQDGLGPYFYNYGMDVWGQGTTVTVSS
VL: SYELTQPPSVSVSPGQTASITCSGDKLGDKYSFWFQQKPGQSPVLVIYHDSKRPSGIPERFSGSNSGDTATLTISGTQAMDEADYYCQAWDSSTYVFGTGTKVTVL
For the molecule B6, the Kd turned out to be 5.1 pM in test [1] and 0.034 pM in test [2].
